Source: PMC3026072

How the values were obtained:
[1] = anti-GFP Western band intensity, CHO membranes; settings: glycan lost; control: wild-type OCTN2
[2] = confocal GFP vs Bodipy-ceramide, MetaMorph; settings: glycan lost; control: wild-type OCTN2
[3] = carnitine 0.5–100 µM uptake, Michaelis-Menten fit, CHO; settings: glycan lost; control: wild-type OCTN2
[4] = Michaelis-Menten kinetics after 16 h tunicamycin, CHO; settings: glycan lost; control: untreated cells

Protein | expression_or_secretion [1] | localisation_or_trafficking, other: percent of transporters at plasma membrane [2] | other: Vmax of carnitine transport [3] | other: kinetic parameters of carnitine transport [4]
OCTN2 carnitine transporter: N57/64/91Q (protein) parent chain: MRDYDEVTAFLGEWGPFQRLIFFLLSASIIPNGFTGLSSVFLIATPEHRCRVPDAANLSSAWRNHTVPLRLRDGREVPHSCRRYRLATIANFSALGLEPGRDVDLGQLEQESCLDGWEFSQDVYLSTIVTEWNLVCEDDWKAPLTISLFFVGVLLGSFISGQLSDRFGRKNVLFVTMGMQTGFSFLQIFSKNFEMFVVLFVLVGMGQISNYVAAFVLGTEILGKSVRIIFSTLGVCIFYAFGYMVLPLFAYFIRDWRMLLVALTMPGVLCVALWWFIPESPRWLISQGRFEEAEVIIRKAAKANGIVVPSTIFDPSELQDLSSKKQQSHNILDLLRTWNIRMVTIMSIMLWMTISVGYFGLSLDTPNLHGDIFVNCFLSAMVEVPAYVLAWLLLQYLPRRYSMATALFLGGSVLLFMQLVPPDLYYLATVLVMVGKFGVTAAFSMVYVYTAELYPTVVRNMGVGVSSTASRLGSILSPYFVYLGAYDRFLPYILMGSLTILTAILTLFLPESFGTPLPDTIDQMLRVKGMKHRKTPSHTRMLKDGQERPTILKSTAF | decreases | abolishes | – | –
OCTN2 carnitine transporter: N64/91Q (protein) parent chain: MRDYDEVTAFLGEWGPFQRLIFFLLSASIIPNGFTGLSSVFLIATPEHRCRVPDAANLSSAWRNHTVPLRLRDGREVPHSCRRYRLATIANFSALGLEPGRDVDLGQLEQESCLDGWEFSQDVYLSTIVTEWNLVCEDDWKAPLTISLFFVGVLLGSFISGQLSDRFGRKNVLFVTMGMQTGFSFLQIFSKNFEMFVVLFVLVGMGQISNYVAAFVLGTEILGKSVRIIFSTLGVCIFYAFGYMVLPLFAYFIRDWRMLLVALTMPGVLCVALWWFIPESPRWLISQGRFEEAEVIIRKAAKANGIVVPSTIFDPSELQDLSSKKQQSHNILDLLRTWNIRMVTIMSIMLWMTISVGYFGLSLDTPNLHGDIFVNCFLSAMVEVPAYVLAWLLLQYLPRRYSMATALFLGGSVLLFMQLVPPDLYYLATVLVMVGKFGVTAAFSMVYVYTAELYPTVVRNMGVGVSSTASRLGSILSPYFVYLGAYDRFLPYILMGSLTILTAILTLFLPESFGTPLPDTIDQMLRVKGMKHRKTPSHTRMLKDGQERPTILKSTAF | decreases | decreases | decreases | –
OCTN2 carnitine transporter: N57/91Q (protein) parent chain: MRDYDEVTAFLGEWGPFQRLIFFLLSASIIPNGFTGLSSVFLIATPEHRCRVPDAANLSSAWRNHTVPLRLRDGREVPHSCRRYRLATIANFSALGLEPGRDVDLGQLEQESCLDGWEFSQDVYLSTIVTEWNLVCEDDWKAPLTISLFFVGVLLGSFISGQLSDRFGRKNVLFVTMGMQTGFSFLQIFSKNFEMFVVLFVLVGMGQISNYVAAFVLGTEILGKSVRIIFSTLGVCIFYAFGYMVLPLFAYFIRDWRMLLVALTMPGVLCVALWWFIPESPRWLISQGRFEEAEVIIRKAAKANGIVVPSTIFDPSELQDLSSKKQQSHNILDLLRTWNIRMVTIMSIMLWMTISVGYFGLSLDTPNLHGDIFVNCFLSAMVEVPAYVLAWLLLQYLPRRYSMATALFLGGSVLLFMQLVPPDLYYLATVLVMVGKFGVTAAFSMVYVYTAELYPTVVRNMGVGVSSTASRLGSILSPYFVYLGAYDRFLPYILMGSLTILTAILTLFLPESFGTPLPDTIDQMLRVKGMKHRKTPSHTRMLKDGQERPTILKSTAF | – | decreases | – | –
OCTN2 carnitine transporter: tunicamycin (0.5 µg/ml) (protein) parent chain: MRDYDEVTAFLGEWGPFQRLIFFLLSASIIPNGFTGLSSVFLIATPEHRCRVPDAANLSSAWRNHTVPLRLRDGREVPHSCRRYRLATIANFSALGLEPGRDVDLGQLEQESCLDGWEFSQDVYLSTIVTEWNLVCEDDWKAPLTISLFFVGVLLGSFISGQLSDRFGRKNVLFVTMGMQTGFSFLQIFSKNFEMFVVLFVLVGMGQISNYVAAFVLGTEILGKSVRIIFSTLGVCIFYAFGYMVLPLFAYFIRDWRMLLVALTMPGVLCVALWWFIPESPRWLISQGRFEEAEVIIRKAAKANGIVVPSTIFDPSELQDLSSKKQQSHNILDLLRTWNIRMVTIMSIMLWMTISVGYFGLSLDTPNLHGDIFVNCFLSAMVEVPAYVLAWLLLQYLPRRYSMATALFLGGSVLLFMQLVPPDLYYLATVLVMVGKFGVTAAFSMVYVYTAELYPTVVRNMGVGVSSTASRLGSILSPYFVYLGAYDRFLPYILMGSLTILTAILTLFLPESFGTPLPDTIDQMLRVKGMKHRKTPSHTRMLKDGQERPTILKSTAF | – | – | – | no change
OCTN2 carnitine transporter: N57Q/N64Q (protein) parent chain: MRDYDEVTAFLGEWGPFQRLIFFLLSASIIPNGFTGLSSVFLIATPEHRCRVPDAANLSSAWRNHTVPLRLRDGREVPHSCRRYRLATIANFSALGLEPGRDVDLGQLEQESCLDGWEFSQDVYLSTIVTEWNLVCEDDWKAPLTISLFFVGVLLGSFISGQLSDRFGRKNVLFVTMGMQTGFSFLQIFSKNFEMFVVLFVLVGMGQISNYVAAFVLGTEILGKSVRIIFSTLGVCIFYAFGYMVLPLFAYFIRDWRMLLVALTMPGVLCVALWWFIPESPRWLISQGRFEEAEVIIRKAAKANGIVVPSTIFDPSELQDLSSKKQQSHNILDLLRTWNIRMVTIMSIMLWMTISVGYFGLSLDTPNLHGDIFVNCFLSAMVEVPAYVLAWLLLQYLPRRYSMATALFLGGSVLLFMQLVPPDLYYLATVLVMVGKFGVTAAFSMVYVYTAELYPTVVRNMGVGVSSTASRLGSILSPYFVYLGAYDRFLPYILMGSLTILTAILTLFLPESFGTPLPDTIDQMLRVKGMKHRKTPSHTRMLKDGQERPTILKSTAF | no change | – | – | –
